Measured values taken from the supplement of paper PMC7125110.
± gives the standard error. Variants at the floor of the assay were thinned out.

B1: glmS ribozyme (parent)
chain: AUAAAAGCGCCAGAACUACAGAAAUGUAGUUGACGAGGAGGAGGUUUAUCGAAUUUUCGGCGGAUGCCUCCAAA

Key:
Conditions in all cases: with glucosamine-6-phosphate
[1] = variants of: B1; experiment: self-cleavage kobs at 640 uM GlcN6P; higher = faster cleavage; RNA array
In short: (§1)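 Barcoded glmS ribozyme variants on sequenced MiSeq chips were transcribed in situ by E. coli RNA polymerase and tracked through a hybridised Cy3 probe at 37 °C. Glucosamine-6-phosphate (40 μM to 10 mM) in HEPES/KCl/Mg(OAc)2 buffer was flowed in, and tiles were imaged over ~14 h. Signals were normalised to baseline and to non-cleaving reference variants; per-tile medians were fit to one- or two-exponential decays to give kobs. kcat and KM came from weighted Michaelis–Menten fits across concentrations.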

[2] = variants of: B1; experiment: self-cleavage kobs at 2500 uM GlcN6P; higher = faster cleavage; RNA array
In short: as §1

[3] = variants of: B1; experiment: self-cleavage kobs at 10000 uM GlcN6P; higher = faster cleavage; RNA array
In short: as §1

| Variant | self-cleavage kobs at 640 uM GlcN6P [1] | self-cleavage kobs at 2500 uM GlcN6P [2] | self-cleavage kobs at 10000 uM GlcN6P [3] |
| --- | --- | --- | --- |
| A12G U31A | 5.56e-05 ± 9.9e-06 s⁻¹ | 7.25e-05 ± 1.1e-05 s⁻¹ | 0.000227 ± 2.4e-05 s⁻¹ |
| A12C G35C G44A C50U | < 1e-05 s⁻¹ | < 1e-05 s⁻¹ | – |
| A12C G41U U46G | 8.69e-05 ± 1.8e-05 s⁻¹ | 7.37e-05 ± 2.8e-05 s⁻¹ | – |
| A15C C58U C61A C70U | 6.5e-05 ± 2.2e-05 s⁻¹ | – | – |
| A15U U31A G32C | 4.96e-05 ± 2e-05 s⁻¹ | 6.02e-05 ± 2.5e-05 s⁻¹ | – |
| A14G C16A U56A | 0.00547 ± 0.0015 s⁻¹ | 0.00293 ± 0.0013 s⁻¹ | – |
| A14C G41C G44C C50G | < 1e-05 s⁻¹ | – | – |
| A14G G37A A52G | 5.33e-05 ± 1.3e-05 s⁻¹ | 9.21e-05 ± 2e-05 s⁻¹ | – |
| A14G U49C | < 1e-05 s⁻¹ | – | – |
| A15U G41A G44U C50U | < 1e-05 s⁻¹ | – | – |
| G21U U46G U49C | < 1e-05 s⁻¹ | < 1e-05 s⁻¹ | – |
| A15G U31G A39U G60U | < 1e-05 s⁻¹ | < 1e-05 s⁻¹ | – |
| C16G G29U G35A | < 1e-05 s⁻¹ | – | – |
| A14C A36U A42G | < 1e-05 s⁻¹ | < 1e-05 s⁻¹ | < 1e-05 s⁻¹ |
| C16A U55G C58G U65G | < 1e-05 s⁻¹ | – | – |
| A12C G32U A64G C70U | < 1e-05 s⁻¹ | – | – |
| A15U C16G G37C | < 1e-05 s⁻¹ | – | – |
| A15G G44U A52C U69C | < 1e-05 s⁻¹ | – | – |
| C16U G29A U31G | 0.00216 ± 0.00066 s⁻¹ | 0.0232 ± 0.011 s⁻¹ | – |
| A15G G29C G38A U47C C71A | < 1e-05 s⁻¹ | < 1e-05 s⁻¹ | – |
| A22G A36G U56C C70G | < 1e-05 s⁻¹ | < 1e-05 s⁻¹ | – |
| A14C U56G C67G | 0.000636 ± 0.00024 s⁻¹ | 0.00165 ± 0.00073 s⁻¹ | 0.0219 ± 0.0084 s⁻¹ |
| A14U C34A C70G | < 1e-05 s⁻¹ | < 1e-05 s⁻¹ | – |

| Variant | self-cleavage kobs at 640 uM GlcN6P [1] | self-cleavage kobs at 2500 uM GlcN6P [2] | self-cleavage kobs at 10000 uM GlcN6P [3] |
| --- | --- | --- | --- |
| A14G A33U G35C | < 1e-05 s⁻¹ | – | – |
| G21A C70U | 0.00594 ± 0.0022 s⁻¹ | 0.00398 ± 0.0016 s⁻¹ | – |
| G13C G40U G60U | < 1e-05 s⁻¹ | – | < 1e-05 s⁻¹ |
| G13C G59U C67A C71U | 5.98e-05 ± 2.4e-05 s⁻¹ | – | – |
| G13U U69C | 7.4e-05 ± 2.2e-05 s⁻¹ | 0.000149 ± 3e-05 s⁻¹ | 0.00027 ± 7.1e-05 s⁻¹ |
| C16U G66U C68G | 0.000124 ± 4.1e-05 s⁻¹ | – | – |
| A14G A39U G41U G51A G59A | < 1e-05 s⁻¹ | – | – |
| A12U A53G U56C | 0.00708 ± 0.0025 s⁻¹ | 0.0149 ± 0.0066 s⁻¹ | – |
| G13C G51A U69G | 4.99e-05 ± 1.8e-05 s⁻¹ | – | – |
| G13U G51U U55A | < 1e-05 s⁻¹ | – | – |
| G13C A14U G40U G51C A53G U54A | < 1e-05 s⁻¹ | – | – |
| A15C G41C A48G | < 1e-05 s⁻¹ | – | – |
| A15C C50U G51A G62U U69C | 3.56e-05 ± 1.7e-05 s⁻¹ | – | – |
| A14U G29C A64G | < 1e-05 s⁻¹ | – | – |
| A12U A39G U47G U54A U69A | 9.73e-05 ± 2e-05 s⁻¹ | 8.59e-05 ± 2.7e-05 s⁻¹ | – |
| A14G G66U C67G | 0.000361 ± 7.9e-05 s⁻¹ | 0.00105 ± 0.00021 s⁻¹ | – |
| A15G U30C C34G A36C G41U U49A C70A | < 1e-05 s⁻¹ | < 1e-05 s⁻¹ | – |
| A14G C16G A39U A52C | < 1e-05 s⁻¹ | – | – |
| C16A U31C G41C | < 1e-05 s⁻¹ | < 1e-05 s⁻¹ | – |
| A14U A15U G60U C71U | < 1e-05 s⁻¹ | – | < 1e-05 s⁻¹ |
| A12C G60C C67U | < 1e-05 s⁻¹ | – | – |
| C16U C61A G63U | < 1e-05 s⁻¹ | – | – |
| C16G A39C G41U U56C C67U | < 1e-05 s⁻¹ | – | – |

| Variant | self-cleavage kobs at 640 uM GlcN6P [1] | self-cleavage kobs at 2500 uM GlcN6P [2] | self-cleavage kobs at 10000 uM GlcN6P [3] |
| --- | --- | --- | --- |
| A15G C58A C68G | 0.000265 ± 8.6e-05 s⁻¹ | – | – |
| A12C G13A A14G C16A U17C A18U A39G C50U A52G | < 1e-05 s⁻¹ | – | – |
| A12G A48C C68G | < 1e-05 s⁻¹ | < 1e-05 s⁻¹ | – |
| A12U C16U A33C | 0.000251 ± 4.5e-05 s⁻¹ | 0.000381 ± 7.2e-05 s⁻¹ | – |
| G13U U45G C67G | < 1e-05 s⁻¹ | – | – |
| G21A G44U | 9.22e-05 ± 2.3e-05 s⁻¹ | 0.000164 ± 3.3e-05 s⁻¹ | – |
| A15C C16G A39C | 3.83e-05 ± 1.7e-05 s⁻¹ | 0.000198 ± 3.4e-05 s⁻¹ | – |
| A14G U49A G63U | < 1e-05 s⁻¹ | – | – |
| A14G A42G C67A | 0.01 ± 0.0028 s⁻¹ | 0.00856 ± 0.0041 s⁻¹ | – |
| A14U G29U C50G | 8.61e-05 ± 3.2e-05 s⁻¹ | – | – |
| A15U A52G C58U | < 1e-05 s⁻¹ | – | – |
| C16U G51U A64G C68A C71A | < 1e-05 s⁻¹ | < 1e-05 s⁻¹ | – |
| A15U U31G A48U | < 1e-05 s⁻¹ | – | – |
| G13C G59A | < 1e-05 s⁻¹ | – | < 1e-05 s⁻¹ |
| G13C G43A U49G A52G | < 1e-05 s⁻¹ | < 1e-05 s⁻¹ | – |
| A12C U31C A48C A52U | < 1e-05 s⁻¹ | < 1e-05 s⁻¹ | – |
| C16U A48C G62U | < 1e-05 s⁻¹ | < 1e-05 s⁻¹ | – |
| A14U A36C G44A U55C C61A | < 1e-05 s⁻¹ | – | – |
| C16U U46C G62U | < 1e-05 s⁻¹ | – | – |
| C16U G41A C71A | 7.7e-05 ± 2.1e-05 s⁻¹ | 0.000279 ± 7.1e-05 s⁻¹ | – |
| G13U G40A | 5.97e-05 ± 1.3e-05 s⁻¹ | 6e-05 ± 1.2e-05 s⁻¹ | 0.000183 ± 3.6e-05 s⁻¹ |
